# From patent US9850300B2, “Compositions and methods relating to inhibiting cancer cell growth and/or proliferation” (The Regents of the University of Michigan, priority 2013, dated 2017)
# B1: EGFL6: recombinant EGFL6-flag protein from transfected HEK293 cells, used purified or as 72 hr supernatant (protein)
# chain: NAASARHHGLLASARQPGVCHYGTKLACCYGWRRNSKGVCEATCEPGCKFGECVGPNKCRCFPGYTGKTCSQDVNECGMKPRPCQHRCVNTHGSYKCFCLSGHMLMPDATCVNSRTCAMINCQYSCEDTEEGPQCLCPSSGLRLAPNGRDCLDIDECASGKVICPYNRRCVNTFGSYYCKCHIGFELQYISGRYDCIDINECTMDSHTCSHHANCFNTQGSFKCKCKQGYKGNGLRCSAIPENSVKEVLRAPGTIKDRIKKLLAHKNSMKKKAKIKNVTPEPTRTPTPKVNLQPFNYEEIVSRGGNSHGGKKGNEEKMKEGLEDEKREEKALKNDIEERSLRGDVFFPKVNEAGEFGLILVQRKALTSKLEHKDLNISVDCSFNHGICDWKQDREDDFDWNPADRDNAIGFYMAVPALAGHKKDIGRLKLLLPDLQPQSNFCLLFDYRLAGDKVGKLRVFVKNSNNALAWEKTTSEDEKWKTGKIQLYQGTDATKSIIFEAERGKGKTGEIAVDGVLLVSGLCPDSLLSVDD
# Tests used:
# [1] = tested on: primary ALDH+ and ALDH(−) cells; assay: Single cell microfluidic culture, cell division type; format: cell-based, human
# Source text: For primary cells, it was observed that over 50% of untreated ALDH^(−) cells underwent no division over 5 days, while remaining cells underwent symmetric division. […] 20% of ALDH^+ cells underwent no division. EGFL6 treatment of primary ALDH^+ cells was associated with a 1.9-fold increase in the number of ALDH^+ cells undergoing asymmetric division (FIG. 3Dii). EGFL6 treatment was associated with an increase in total cell numbers (90 EGFL6 treated cells yielded 585 total cells while 82 mock-treated cells yielded 451 cells).
# Informed consent was obtained from all patients before tissue procurement. All studies were performed with the approval of the Institutional Review Board of the University of Michigan. All tumors were stage III or IV epithelial ovarian or primary peritoneal cancer. Tumors were mechanically dissected into single-cell suspensions and isolated on a ficoll gradient as previously described (see, e.g., Pulaski, H. L., et al. J Transl Med 7, 49 (2009)). For ascites, cell pellets were collected by centrifugation; red cells were lysed using ACK buffer (Lonza, Hopkinton, Mass.), washed, passed through a 40-μm filter, then passed 4 times through a Standard Hub Pipetting needle to isolate single cells (see, e.g., Silva, I. A., et al. Cancer Res (2011)).
# [2] = tested on: Human ovarian cancer ascites cells; assay: Tumor sphere assay, ALDH+ cell percentages; format: cell-based; conditions: EGFL6 treatment
# Source text: It has been shown that aldehyde dehydrogenase enzymatic activity (ALDH) is an excellent marker of ovarian CSCs in SKOV3 cells and primary patient samples (see, e.g., Silva, I. A., et al. Cancer Res (2011); Landen, C. N., Jr., et al. Mol Cancer Ther 9, 3186-3199 (2010); Steg, A. D., et al. Clin Cancer Res 18, 869-881 (2012); Kryczek, I., et al. Int J Cancer 130, 29-39 (2012); Deng, S., et al. PLoS ONE 5, e10277 (2010)). The impact of EGFL6 treatment on the percentage of ALDH^+ CSCs in vitro was next assessed. […] However, given the increase in total cell numbers, the absolute ALDH^+ CSC number remained unchanged (FIG. 3Aiii). […] Human ovarian cancer ascites cells were also treated with EGFL6 in a tumor sphere assay. Once again, treatment with EGLF6 was associated with a reduction in ALDH^+ cell percentages in tumor spheres (FIG. 3B).
# Sphere culture was performed as previously described (see, e.g., Silva, I. A., et al. Cancer Res (2011)). Briefly, single cell suspensions were plated in triplicate in ultra-low attachment plates (Corning, Acton, Mass., USA) in serum-free MEBM-2 (Lonza). Cells were plated at the indicated density and from 1,000-10,000 cells/ml in subsequent passage. Sphere formation was assessed 2 weeks after seeding cells.
# [3] = tested on: ALDH+ and ALDH(−) SKOV3 cells; assay: Single cell microfluidic culture, cell division type; format: cell-based
# Experimental: To determine if EGFL6 is promoting asymmetric division, a novel microfluidic culture device was used which allows the isolation, confirmation, and culture of individual cells. ALDH^+ and ALDH^(−) SKOV3 cells were FACS-sorted into separate microfluidic devices (see, e.g., Chung, J., Kim, Y. J. & Yoon, E. Appl Phys Lett 98, 123701 (2011)), and confirmed ALDH expression with fluorescent microscopy (FIG. 3Di). Cells were then mock-treated or treated with EGFL6. After 48 hours, live cells were stained using ALDEFLUOR and re-imaged using fluorescent microscopy (FIG. 3Dii, right panels). Cell divisions, type of daughter cell (ALDH^(−) or ALDH^+), and total cell number were assessed. […] Production of ALDH^+ daughter cells from ALDH^(−) cells was not observed. […] This was associated with a statistically significant increase in total cell numbers; 6.5 versus 3.7 average cells/well and total 325 vs. 185 total cells/50 captured cells in EGFL6 treated and control ALDH^(+) cells respectively.
# [4] = tested on: cellular migration; assay: In vitro scratch test wound healing assay; format: cell-based; conditions: EGFL6 treated cells
# [5] = ALDH+ SKOV3 cells, EGFL6 treated
molecule,measurement,setting,value
B1,total cells yielded,[1]; from 90 EGFL6 treated primary cells,585 total cells
same,symmetric divisions of ALDH(−) cells,"[1]; primary ALDH(−) cells, 5 days",non-statistically significant increase
same,increase in the number of ALDH+ cells undergoing asymmetric division,[1]; primary ALDH+ cells,1.9 fold
same,ALDH+ cell percentages in tumor spheres,[2],reduction
same,number or type of cell divisions of ALDH(−) cells,"[3]; ALDH(−) SKOV3 cells, 48 hours",no significant impact
same,increase in the percentage of ALDH+ cells undergoing asymmetric division,"[3]; ALDH+ SKOV3 cells, 48 hours, vs mock-treated",2 fold
same,average cells/well,[3]; [5],6.5 cells/well
same,total cells/50 captured cells,[3]; [5],325 total cells/50 captured cells
same,increase in the rate of wound closure,[4],40%
